In US20110010785A1, “PRODUCTS AND THEIR USE FOR THE DIAGNOSIS, PREVENTION AND/OR CARE OF HUMAN AND/OR ANIMAL PATHOLOGIES CHARACTERISED BY THE ANOMALOUS DEPOSITION OF B-AMYLOID AND/OR AMYLOID-LIKE SUBSTANCE IN HUMAN AND/OR ANIMAL ORGANS AND TISSUES, AND SCREENING METHOD FOR DETERMINING THE RISK OF SUCH PATHOLOGIES” (Fondazione I.R.C.C.S Istituto Neurologico "Carlo Besta", priority 2007, published 2011):

Molecular target: T1, wild-type Aβ1-40 (Homo sapiens, UniProt P05067)
T1 construct: lipophile probe (4-dodecylaminocarbonylfluorene-9-ylmethylsuccinimidyl carbonate), non-protein purification handle (N); made in house; host or cells: chemical solid phase synthesis (no expression host)
Assay: Inhibition of amyloidogenesis: hexapeptides co-incubated with wild-type Aβ1-40 (ultrastructural and histochemical study)
Assay type: biochemical
Conditions: for effect on fibrillogenesis of Aβ1-40: co-incubated with wild-type Aβ1-40, equimolar or in excess (hexapeptide:Aβ1-40=5:1)
Experimental: For the ultrastructural investigation, 5 μl of suspension of wild-type Aβ1-40, mutated Aβ1-40 and their equimolar mixture were drawn at incubation times in the range of 1 hour-20 days, deposited on nickel screen covered with Formvar-Carbon for 5 minutes, negatively coloured with an over-saturated solution of uranyl and observed under electronic microscope (EM109 Zeiss). On the twentieth day of incubation, aliquots of the samples were centrifuged at 15,000 g for 15 minutes. The pellets thus obtained were fixed in 2.5% glutaraldehyde in phosphate buffer, pH 7.4, post-fixed in 1% osmium tetroxide, dehydrated in acetone and included in epoxy rein (Spurr, Electron Microscopy Sciences). Ultrafine sections (500 Å) were collected on copper screens, coloured with uranyl acetate and lead citrate and observed under the electronic microscope.
In order to verify if and in what measure the aggregates were constituted by amyloid, 5 μl of solution of each sample, for the different incubation times, was collected on polylysinated slides (Bio-Optical), coloured with Congo Red and examined with polarised light microscope (Nikon Eclipse E-800).
The two hexapeptides were co-incubated with wild-type Aβ1-40 at equimolar concentration or in excess (hexapeptide:Aβ1-40=5:1). The mixtures were prepared for the ultrastructural and histochemical study as described in example 2.

T1 sequence (P05067 672-711): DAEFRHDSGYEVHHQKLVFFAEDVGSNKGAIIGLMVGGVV

Substance: DAEFRH
- effect on fibrillogenesis of Aβ1-40: inhibit the fibrillogenesis of Aβ1-40

Substance: DVEFRH [synthetic peptide, first six amino acids of Aβ with valine in place of alanine in position 2]
- inhibitory activity on fibrillogenesis relative to wild-type hexapeptide (co-incubated with wild-type Aβ1-40, equimolar or 5:1): more active than the corresponding wild-type
- effect on fibrillogenesis of Aβ1-40: inhibit the fibrillogenesis of Aβ1-40
